Laboratory results taken from patent publication US6773704B1, “Methods of treating vascular disease associated with cystatin C deficiency” (The Brigham and Women's Hospital, Inc., priority 1999, dated 2004).
Entries after “also recorded” stand apart in the source; their conditions may differ.

Columns and labels:
Assay type in all cases: cell-based, human
[1] = system: cathepsin S and cystatin C protein/secretion by smooth muscle cells; test: Immunoblot analysis of smooth muscle cell lysates and culture medium; settings: for cystatin C secretion (level of secreted cystatin C): cultured vascular smooth muscle cells, culture medium
Protocol: Human sapheneous vein smooth muscle cells were cultured in Swell plates in Dulbecco's Modification of Eagle's Medium (DMEM) containing 10% fetal bovine serum (FBS) until confluent. […] Culture medium was then collected and centrifuged at 16000×g for 10 min. Proteins were precipitated with 20% trichloroacetic acid on ice for 30 min. followed by repeat centrifugation. The protein pellet was briefly washed with 100% ethanol and resuspended in electrophoresis sample buffer smooth muscle cells were lysed directly into sample buffer after two washes with 1×PBS. Both cell lysates and proteins from culture medium were separated on SDS-PAGE for immunoblot analysis with antibodies against human cathepsin S and cystatin C as described above. All Western blots were developed with Western Blot Chemiluminescence Reagent (NEN Life Science Products, Inc., Boston, Mass., USA).

[2] = system: IFN-γ-stimulated smooth muscle cells elastase activity; test: Elastase assay: smooth muscle cells co-cultured with insoluble [3H]-elastin
Description: FIG. 2 is a bar graph showing that smooth muscle cells elastase activity is inhibited by recombinant cystatin C. Interferon-γ stimulated smooth muscle cells were co-cultured in serum-free medium with insoluble elastin in the presence of increasing concentrations of cystatin C as indicated in the panel. After 72 hrs, media were collected and soluble radioactivity measured as an index of elastin degradation.
FIG. 3 is a graph showing that TGF-β1 blocks smooth muscle cells elastase activity. Interferon-stimulated smooth muscle cells were co-cultured with elastin as above in the presence of increasing amounts of TGF-β1 and elastin degradation quantified after 72 hrs.
Prior studies documenting the capacity of macrophages to use cysteine proteases to degrade elastin found macrophage elastolytic activity to be insensitive to the presence of pericellular serum protease inhibitors (Reedy et al., 92 Porch. Natl. Acad. Sci. 3849-853 (1995); Chapman et al., 74 J. Clin. Invest. 1693-700 (1984)). Given the marked reduction of cystatin C in atherosclerotic and aneurysmal lesions and the clinical correlation in EXAMPLES 1-3, the influence of cystatin C on the elastolytic activity of cultured vascular smooth muscle cells was examined. Vascular smooth muscle cells were stimulated with IFN-γ (500 units/ml) for 24 hours to augment cathepsin S-dependent elastase activity (Sukhova et al., 102 J. Clin. Invest. 576-83 (1998)). In co-cultures with insoluble elastin, the addition of as little as 10 ng/ml of recombinant cystatin C inhibits elastin degradation (FIG. 2). Higher concentrations of cystatin C block >75% of the IFNγ-induced activity, confirming that smooth muscle cells elastase activity depends largely on elastolytic cysteine proteases.
The elastase assay was performed as follows: Smooth muscle cells were cultured on 24-well plates in 10% FBS DMEM until 100% confluence (5×10^5 cells/well). […] The digested elastin radioactivity was counted using 200 μl of medium and the data presented as μg elastin degraded per 10^6 cells in 24 hours.

[3] = system: cathepsin S and cystatin C mRNA in smooth muscle cells; test: Northern blot analysis of smooth muscle cell RNA
Protocol: Total RNAs were isolated from control and IFN-γ-stimulated smooth muscle cells for Northern blot analysis. Northern blot analysis was performed as follows: After INF-γ and TGF-β1 treatments, 1.5×10^7 smooth muscle cells were lysed in 5 ml of guanidium. isothiocyanate (GTC) lysis buffer for RNA preparation as described (Sukhova et al., 102 J. Clin. Invest. 576-83 (1998)). Twenty micrograms of total RNA from smooth muscle cells were separated on 1.2% agarose gel and blotted on Zeta-Probe GT blotting membrane (Bio-Rad Laboratories, Inc.). A human cystatin C probe was generated by polymerase chain reaction using cystatin C cDNA. The 500 bp cystatin C cDNA fragment and cathepsin S cDNA probe (Sukhova et al., 102 J. Clin. Invest 576-83 (1998)) were labeled with [^32P]-dCTP and purified with NENSORB 20 column (NEN Life Science Products, Inc.) before hybridizing as previously described (Sukhova et al., 102 J. Clin. Invest. 576-83 (1998)).

[4] = smooth muscle cells, TGF-β1 5 ng/ml
[5] = smooth muscle cells stimulated with IFN-γ (500 units/ml)

TGF-β1: transforming growth factor-β1, native or recombinant cytokine (SEQ ID NO:2); induces cystatin C secretion
cystatin C secretion (level of secreted cystatin C) [1]: markedly increases; also recorded: stimulates; also recorded: potent inducer
time after exposure at which cystatin C biosynthesis increases ([1]; smooth muscle cells exposed to TGF-β1): one
level of cathepsin S protein [1, 4]: does not change
concentration that almost completely blocks elastase activity ([2]; IFN-γ-stimulated smooth muscle cells, elastin degradation after 72 hrs): ≤ 1 ng/mL
level of cathepsin S mRNA [3, 4]: does not change
level of cystatin C mRNA [3, 4]: does not change

B1: recombinant cystatin C: 13 kDa extracellular inhibitor of cysteine proteases, human sequence SEQ ID NO:1; native or recombinant (protein, UniProt P01034 27-146, looked up)
Cystatin-C: SSPGKPPRLVGGPMDASVEEEGVRRALDFAVGEYNKASNDMYHSRALQVVRARKQIVAGVNYFLDVELGRTTCTKTQPNLDNCPFHDQPHLKRKAFCSFQIYAVPWQGTMTLSKSTCQDA
concentration that inhibits elastin degradation (elastolytic activity) ([2]; IFN-γ (500 units/ml) stimulated vascular smooth muscle cells co-cultured with insoluble elastin, 72 hrs): ≤ 10 ng/mL
block of IFNγ-induced elastase activity ([2]; higher concentrations of cystatin C (tested 0-500 ng/ml), IFN-γ-stimulated smooth muscle cells): > 75%

B2: IFN-γ: pro-inflammatory cytokine used at 500 units/ml to stimulate smooth muscle cell cathepsin S-dependent elastase activity (protein, UniProt P01579 24-161, looked up)
Interferon gamma: QDPYVKEAENLKKYFNAGHSDVADNGTLFLGILKNWKEESDRKIMQSQIVSFYFKLFKNFKDDQSIQKSVETIKEDMNVKFFNSNKKKRDDFEKLTNYSVTDLNVQRKAIHELIQVMAELSPAAKTGKRKRSQMLFRG
cystatin C secretion (level of secreted cystatin C) [1]: no effect
secretion of active cathepsin S [1, 5]: induces
cathepsin S mRNA [3, 5]: induces
